# Results published in patent US7396682B2, “Method for cell adhesion and wound healing” (Regen Biotech, Inc., priority 2000, dated 2008).
# Entries after “also recorded” stand apart in the source; their conditions may differ.
# Assays:
# HCE cells = test: Divalent cation sensitivity of βig-h3-mediated adhesion; type: cell-based, human; conditions: cells incubated 30 min with divalent cations in HBS
# Procedure: To analyze the divalent cation sensitivity of βig-h3-mediated adhesion, cells were suspended in HEPES-buffered saline (HBS) (150 mM NaCl, 25 mM HEPES, 2 mM EDTA, pH 7.4) at a density of 2×10^5 cells/ml and incubated at 37° C. for 30 min. Then, they were washed twice in HBS and resuspended in the same buffer. Aliquots of cells (50 μl) were then added to the microculture plate wells and incubated for 30 min at 37° C. in a humidified atmosphere of 5% CO2 with 50 μl aliquots of HBS containing divalent cations (MnCl2, MgCl2 or CaCl2) at a concentration twice as large as the final concentration. Subsequently, they were plated on ligand-coated dishes to perform the adhesion assay.
# [1] = tested on: dermal whole layer wounds on the backs of rats; test: Wound healing with ointment bases on dermal whole layer wounds (2 cm) of rats; type: in vivo, rat; set-up: key to Formation grade of collagenous fibers at wound: 0: negative; 1+: insignificant; 2+: scatteringly formed; 3+: very dense; key to Re-ephithelialization of Wound (grade): 0: zero was set for the formation of no epithelial layers; 1+ for initiation of epithelialization; 2+ for incomplete epithelial layer structure; 3+ for complete epithelial layer structure; conditions: for wound area: ointment 100 μg/ml, 1 g per day, mean
# Procedure: To compare wound healing activity between the recombinant βig-h3 protein His-β-b, which contains all of the four fas-1 domains, like native βig-h3 protein, and the recombinant βig-h3 protein βigh3-D-IV, which contains the 4th domain alone, ointment bases comprising the recombinant proteins were tested as follows.
# Four dermal whole layer wounds, each 2 cm in diameter, were made on the backs of rats and divided into test groups 1-A, 1-B, 1-C and 1-D according to the ointment applied thereto.
# 1-A: coated at a dose of 1 gm per day with an ointment base combined with no materials.
# 1-B: coated at a dose of 1 gm per day with an ointment in which fibronectin was combined at a concentration of 100 μg/ml with a base.
# 1-C: coated at a dose of 1 g per day with an ointment in which Hisβ-b protein was combined at a concentration of 100 μg/ml with a base.
# 1-D: coated at a dose of 1 g per day with an ointment in which βigh3-D-IV protein was combined at a concentration of 100 μg/ml with a base.
# The backs of etherized rats were shaved, followed by sterilizing the shaved region with betadin solution. In test group 1, the back of each rat was cut by use of a No. 15 surgical blade to form four circular wounds with a diameter of 2 cm penetrating the whole dermal layers. Ointments for test groups 1-A, 1-B, 1-C and 1-D were applied at an amount of about 1 g to the wounds which were then covered with a synthetic dressing (Tegaderm® 3M) and lightly bandaged. Application of ointments was performed once every day.
# With a base of an aqueous material (SamA base), each of the ointments contained, per 1 g, spermaceti 38 mg, stearyl alcohol 116 mg, polyethylglycol 38 mg, conc. glycerin 192 mg, ethanol 23 mg, […], ethyl paraoxybenzoate 0.87 mg, butyl paraoxybenzoate 0.12 mg, and purified water.
# First, morphologies of wounds were observed. The same scale was positioned near each wound and pictures were taken at the same distance from each wound. Pictures were scanned in a computer and used to measure areas of the wounds with the aid of NIH image analysis system (Bio-Optics). To take the pictures, the muscle was completely relaxed by etherizing the rats. Measurements were performed once every other day until the 22nd day. For comparing test groups, the measured values were analyzed according to ANOVA test and Scheffer's test.
# Histological analysis was conducted under an optical microscope. Biopsies of wound sites were taken at days 3, 7, 10, 14 and 20, and fixed in 10% formalin and solidified with paraffin. 6 μm slices of the samples were dyed with hematoxylin-eosin (H&E) and Masson's trichrome before observation under a microscope. Wound healing effects according to time of each test material were evaluated through re-epithelialization and formation of collagenous fibers. In the case of re-epithelialization, epithelial formation was semi-quantified in such a way that zero was set for the formation of no epithelial layers, 1+ for initiation of epithelialization, 2+ for incomplete epithelial layer structure, and 3+ for complete epithelial layer structure. Regarding comparison among test groups and differences according to time within each group, measured values were statistically analyzed using ANOVA test and Scheffe's test. As for collagenous fiber formation, it was graded as 1+ for insignificant formation of collagenous fibers as observed with trichrome dye, 2+ for scatteringly spaced collagenous fibers, and 3+ for dense collagenous fibers.
# [2] = Expression form and non-denaturing gel electrophoresis of recombinant proteins; type: physicochemical; conditions: electrophoresis using non-denaturing gel
# Procedure: The recombinant proteins containing at least one 4th domain, such as βig3-D-IV, 2X, 3X and 4X were prepared as follows. A DNA fragment encoding to amino acid 498-637 corresponding the 4th domain was obtained by PCR and the PCR products were blunt-ended by Klenow enzyme. This blunt-ended cDNA fragment was inserted to the EcoRV site of the pβig-h3 D-IV, which contained the 4th domain of βig-h3, and the resulting expression vector was named pβI-h3 D-IV 2X. The insert of the pβig-h3 D-IV 2X was excised by digestion with EcoRV and XhoI and blunt-ended by treatment with Klenow, followed by inserting the blunt-ended fragment into EcoRV sites of pβig-h3 D-IV and pβig-h3 D-IV 2X. The resulting expression vectors were named pβig-h3 D-IV 3X and pβig-h3 D-IV 4X. Expression of all recombinant proteins was induced for 3 hours in the presence of 1 mM IPTG and isolated by use of Ni-NTA resin (Qiagen).
# [3] = tested on: Human corneal epithelial (HCE) cells; test: HCE cell adhesion and spreading assay on protein-coated plates; type: cell-based; conditions: HCE cells on coated recombinant protein
# Procedure: Human corneal epithelial (HCE) cells used in this assay were cultured in DMEM ([…], Gibco BRL) supplemented with 15% fetal bovine serum, Gentamicin (40 μg/ml), insulin (5 μg/ml), cholera toxin (0.1 μg/ml) and human epidermal growth factor (hEGF) at 37° C. in 5% CO2.
# The cell adhesion assay was performed as follows. First, the recombinant βig-h3 proteins or other extracellular matrix proteins were let to adhere to the bottoms of 96-well microculture plates (Falcon) by incubation at 37° C. for 1 hour and blocked with PBS containing 0.2% BSA. The coated extracellular matrix proteins were human plasma vitronectin (Promega), purified human plasma fibronectin (pFN), chicken collagen types I and II (Chemicon International Inc.), bovine collagen types IV and VI (Chemicon), mouse laminin (Chemicon), and bovine serum albumin (BSA) (Sigma). Cells were trypsinized and suspended in the culture media at a density of 2×10^5 cells/ml. 0.1 ml of the cell suspension was added to each well of the plates coated with the recombinant proteins.
# Following incubation at 37° C. for 1 hour, unattached cells were removed by rinsing with PBS. Attached cells were incubated for 1 hour at 37° C. in 50 mM citrate buffer, pH 5.0, containing 3.75 mM p-nitrophenol-N-acetyl 1-β-D-glycosaminide as a hexosaminidase substrate and 0.25% Triton X-100, followed by the addition of 50 mM glycine buffer, pH 10.4, containing 5 mM EDTA to block the enzyme activity. A measurement was made of absorbance at 405 nm in a Multiskan MCC/340 microplate reader.
# To determine cell area as an index for cell adhesion activity, 4×10^4 cells were applied to substrates in 48-well culture plates. The attached cells were fixed weith 8% glutaraldehyde (Sigma) and then stained with 0.25% Crystal Violet (Sigma) in 20% methanol. Measurement of cell areas was performed by Image-Pro plus software (Media Cybernetics). Experiments were repeated in triplicate with 200 or 300 measurements per site for each experiment. Data is reported as the mean area at specific time points±standard error of mean.
molecule,measurement,setting,value
"[Cl][Mn][Cl] [Mn^2+, MnCl2]",promotion of cell adhesion to βig-h3 by divalent cations,HCE cells,strongly promoted
"βig-h3 D-IV: recombinant polypeptide, 4th fas-1 domain of βig-h3, amino acids 498-637 (SEQ ID NO:26) (protein, left off: small tags and cut ends) LTPPMGTVMDVLKGDNRFSMLVAAIQSAGLTETLNREGVYTVFAPTNEAFRALPPRERSRLLGDAKELANILKYHIGDEILVSGGIGALVRLKSLQGDKLEVSLKNNVVSVNKEPVAEPDIMATNGVVHVITNVLQPPAN",wound area,[1]; Day 0,3.15
same,wound area,[1]; Day 2,2.62 cm²
same,Formation grade of collagenous fibers at wound,[1]; Day 3,1+
same,Re-ephithelialization of Wound (grade),[1]; Day 3,0
same,wound area,[1]; Day 4,2.37
same,wound area,[1]; Day 6,1.98
same,Re-ephithelialization of Wound (grade),[1]; Day 7,0
same,Formation grade of collagenous fibers at wound,"[1]; Day 7, listed as 1-D",+1
same,Formation grade of collagenous fibers at wound,"[1]; Day 7, listed as βigD-IV",1+
same,wound area,[1]; Day 8,1.51 cm²
same,Formation grade of collagenous fibers at wound,[1]; Day 10,2+
same,Re-ephithelialization of Wound (grade),[1]; Day 10,1+
same,wound area,[1]; Day 10,0.98 cm²
same,wound area,[1]; Day 12,0.44
same,Formation grade of collagenous fibers at wound,[1]; Day 14,3+
same,Re-ephithelialization of Wound (grade),[1]; Day 14,2+
same,wound area,[1]; Day 14,0.22
same,wound area,[1]; Day 16,0.20
same,wound area,[1]; Day 18,0.18
same,Formation grade of collagenous fibers at wound,[1]; Day 20,3+
same,Re-ephithelialization of Wound (grade),[1]; Day 20,3+
same,wound area,[1]; Day 20,0.13
same,wound area,[1]; Day 22,0.06
same,completion of re-epithelialization,[1]; optical microscope,20 days
same,polymer formation,[2],did not form polymers
same,HCE cell adhesion activity,[3],equally active compared to the wild type βig-h3; also recorded: high cell attachment activity
